{"source": "paper PMC5895659", "about": "“Mechanistic and Structural Insights Into the Unique TetR-Dependent Regulation of a Drug Efflux Pump in Mycobacterium abscessus” (Frontiers in Microbiology, 2018)", "binders": {"B1": {"name": "MAB_4384 TetR regulator (natural protein)", "chain": "MNGREVAHRPLRKDAERNRKRVIAAARELFAVHGLESTLNEVAHHAGLGVGTVYRRFPTKEALFEAIYVDGMDQLSGLAEAALRHENSWEGFEWFVHQMCEITATNRGLREIAFSKAHGGDHVEAGRARLLPLLSKVVERAQEDGYLRPEASATDMPFFGVLTGAVSEFAGEVNADLWRRYMAILIEGMRRRDDQERLEVDALDEAQIDAAMTTWQPAGSG", "notes": "MAB_4384, TetR family transcriptional repressor of Mycobacterium abscessus subsp. abscessus CIP104536T; amplified from genomic DNA with the MAB_4384_full primers; theoretical mass 24.7 kDa; the account of the structure (chain A modelled Asp14 to Thr213, first thirteen and last eight residues not visible) implies residues 1-221; also called wild-type MAB_4384; source: E. coli BL21 Rosetta 2 (DE3), …"}, "B2": {"name": "Probe 3 (flanks randomly changed) (dsDNA)", "DNA 1": "TCTGGATAAGCAAGTGGATTGACTCTATCCACTTCCGAAACCGAC", "DNA 2": "GTCGGTTTCGGAAGTGGATAGAGTCAATCCACTTGCTTATCCAGA"}, "B3": {"name": "Non-specific probe (dsDNA)", "DNA 1": "ATGGAACTTGAAGGACTGACCGCGTTG", "DNA 2": "CAACGCGGTCAGTCCTTCAAGTTCCAT"}, "B4": {"name": "Probe 1 (IRS5/L5 operator) (dsDNA)", "DNA 1": "CACTTCGCCATAAGTGGATTGACTCTATCCACTTTTACCCATAGA", "DNA 2": "TCTATGGGTAAAAGTGGATAGAGTCAATCCACTTATGGCGAAGTG"}, "B5": {"name": "Probe 1 unlabeled (dsDNA)", "DNA 1": "B4 DNA 1", "DNA 2": "B4 DNA 2"}}, "key": {"[1]": {"molecular_target": "the molecule itself", "assay": "SEC; ENrich SEC 650 column, 50 mM Tris-HCl pH 8, 200 mM NaCl, 5 mM beta-mercaptoethanol, 0.4 mL/min, 4 °C; MAB_4384 at 3.9 mg/mL; apparent mass from a calibration curve (42.6 kDa against 24.7 kDa theoretical)"}, "[2]": {"molecular_target": "T1, MAB_4384 (TetR regulator) (Mycobacterium abscessus subsp. …, UniProt B1MJU8 1-221)", "assay": "EMSA; comparable to Probe 1; EMSA: 280 nM fluorescein probe, 1X TAE, 1 h, room temperature, 6% native PAGE in 1X TAE; SEC: 50 mM Tris-HCl pH 8, 200 mM NaCl, 5 mM beta-mercaptoethanol, 4 C", "details": "protein: recombinant; tags: Trx-His6 tag removed by TEV; residual Gly at N-terminus; chain copies: 4; label: 5' fluorescein; blunt"}, "[3]": {"molecular_target": "MAB_4384 (TetR regulator) (Mycobacterium abscessus subsp. …, UniProt B1MJU8 1-221)", "assay": "competition; excess non-related labeled probe; shift of Probe 1 maintained; EMSA: 280 nM fluorescein probe, 1X TAE, 1 h, room temperature, 6% native PAGE in 1X TAE; SEC: 50 mM Tris-HCl pH 8, 200 mM NaCl, 5 mM beta-mercaptoethanol, 4 C", "details": "protein: recombinant; tags: Trx-His6 tag removed by TEV; residual Gly at N-terminus; chain copies: 4; label: 5' fluorescein; blunt"}, "[4]": {"molecular_target": "T2, MAB_4384 (D14N/F57L) (Mycobacterium abscessus subsp. …, UniProt B1MJU8 1-221, D14N;F57L)", "T2 sequence": "B1 chain with D14N, F57L", "assay": "EMSA; fully abrogated; EMSA: 280 nM fluorescein probe, 1X TAE, 1 h, room temperature, 6% native PAGE in 1X TAE; SEC: 50 mM Tris-HCl pH 8, 200 mM NaCl, 5 mM beta-mercaptoethanol, 4 C", "details": "protein: recombinant; tags: Trx-His6 tag removed by TEV; residual Gly at N-terminus; chain copies: 2; label: 5' fluorescein; blunt"}, "[5]": {"molecular_target": "T1, MAB_4384 (TetR regulator)", "assay": "EMSA; 280 nM probe; EMSA: 280 nM fluorescein probe, 1X TAE, 1 h, room temperature, 6% native PAGE in 1X TAE; SEC: 50 mM Tris-HCl pH 8, 200 mM NaCl, 5 mM beta-mercaptoethanol, 4 C", "details": "protein: recombinant; tags: Trx-His6 tag removed by TEV; residual Gly at N-terminus; chain copies: 4; label: 5' fluorescein; blunt"}, "[6]": {"molecular_target": "T1, MAB_4384 (TetR regulator)", "assay": "competition; cold probe vs 280 nM labeled Probe 1; dose-dependent decrease; EMSA: 280 nM fluorescein probe, 1X TAE, 1 h, room temperature, 6% native PAGE in 1X TAE; SEC: 50 mM Tris-HCl pH 8, 200 mM NaCl, 5 mM beta-mercaptoethanol, 4 C", "details": "protein: recombinant; tags: Trx-His6 tag removed by TEV; residual Gly at N-terminus; chain copies: 4; blunt"}}, "note": "Numbering of substitutions follows the chain as printed.", "data": [{"binder": "B1", "values": [{"measurement": "stoichiometry N", "setting": "[1]", "result": 2}]}, {"binder": "B2", "values": [{"measurement": "binding result", "setting": "[2]", "result": "binds"}]}, {"binder": "B3", "values": [{"measurement": "binding result", "setting": "[3]", "result": "no binding"}]}, {"binder": "B4", "values": [{"measurement": "binding result", "setting": "[4]", "result": "no binding"}, {"measurement": "binding result", "setting": "[5]", "result": "binds"}]}, {"binder": "B5", "values": [{"measurement": "binding result", "setting": "[6]", "result": "binds"}]}]}
